# T1: human podocalyxin (human)
# T1 chain: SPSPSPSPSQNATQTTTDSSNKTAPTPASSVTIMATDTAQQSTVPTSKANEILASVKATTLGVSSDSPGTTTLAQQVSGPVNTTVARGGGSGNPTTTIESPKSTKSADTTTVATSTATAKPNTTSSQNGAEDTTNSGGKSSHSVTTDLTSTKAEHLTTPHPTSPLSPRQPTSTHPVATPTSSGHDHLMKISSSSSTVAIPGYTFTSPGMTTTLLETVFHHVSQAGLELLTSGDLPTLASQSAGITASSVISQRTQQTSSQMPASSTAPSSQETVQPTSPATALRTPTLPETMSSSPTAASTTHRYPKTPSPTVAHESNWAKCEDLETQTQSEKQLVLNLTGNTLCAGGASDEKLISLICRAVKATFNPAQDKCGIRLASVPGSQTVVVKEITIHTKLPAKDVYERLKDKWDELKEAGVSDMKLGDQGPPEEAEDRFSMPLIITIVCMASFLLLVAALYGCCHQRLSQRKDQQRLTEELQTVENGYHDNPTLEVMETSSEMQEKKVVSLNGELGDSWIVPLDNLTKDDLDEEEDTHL
# B1: Mouse anti-podocalyxin antibody 3G2 (antibody, V domains shown)
# VH: EVQLQQSGPELVKPGASVKMSCKASGYTFTSYVMHWVKQKPGQGLEWIGYIHPYNDGTNYNEKFKGKATLTSDKSSNTAYMELSSLTSEDSAVYYCARSWDWYFDVWGAGTTVTVSS
# VL: QIVLTQSPAIMSASPGEKVTMTCSANSNVRYIHWHQQKSGTSPKRWIYDTSKLSSGVPARFSGSGSGTSYSLTISNMEAEDAATYYCQQWISNPLTFGAGTKLELK
# B2: Rb/huPodo 83 hIgG2 (antibody, V domains shown)
# VH: CQSLAESGGRLVTPGTPLTLTCTASGIDLSSYAMGWVRQAPGKGLEYIGFIYASGSIFYASWAKGRFTISKTSSTTVDLKMTSLTTEDTATYFCARAGYYFGGNYDLNLWGQGTLVTVSS
# VL: DIVLTQTPASVEVAVGGTVTIKCQASQSISNYLAWYQRKPGQPPRLLIYRASTLASGVSSRFKGSGSGTQFTLTISGVECADAATYYCQQGYVSNNLDNIFGGGTEVVVK
# modifications: human IgG2 constant regions
# B3: Rabbit Podo 83 (Parental rabbit antibody) (antibody, V domains shown)
# VH: B2 VH
# VL: B2 VL
# modifications: rabbit constant regions
# B4: huPodo 83 1:1 (humanized anti-podocalyxin antibody 83, version 1) (antibody, V domains shown)
# VH: EVQLVESGGGLVQPGGSLRLSCAASGIDLSSYAMGWVRQAPGKGLEWVSFIYASGSIFYASWAKGRFTISRDNSKNTLYLQMNSLRAEDTAVYYCARAGYYFGGNYDLNLWGQGTLVTVSS
# VL: DIQMTQSPSSLSASVGDRVTITCQASQSISNYLAWYQQKPGKVPKLLIYRASTLASGVPSRFSGSGSGTDFTLTISSLQPEDVATYYCQQGYVSNNLDNIFGGGTEVVVK
# B5: huPodo 83 2:1 (humanized anti-podocalyxin antibody 83, version 2) (antibody, V domains shown)
# VH: EVQLVESGGGLVQPGGSLRLSCAASGIDLSSYAMGWVRQAPGKGLEWVSFIYASGSIFYASWAKGRFTISRDNSNTLYLQMNSLRAEDTAVYYCARAGYYFGGNYDLNLWGQGTLVTVSS
# VL: B4 VL
# B6: Rb VH, Vk 1:1 (Podo 83 rabbit VH, human CH1-CH3, human Ck, and humanized Vk) (antibody, V domains shown)
# VH: QSLAESGGRLVTPGTPLTLTCTASGIDLSSYAMGWVRQAPGKGLEYIGFIYASGSIFYASWAKGRFTISKTSSTTVDLKMTSLTTEDTATYFCARAGYYFGGNYDLNLWGQGTLVTVSS
# VL: B4 VL
# Assays:
# human podocalyxin [1] = molecular target: T1, human podocalyxin; test: FACS, isotype control, hPodo/MDA cells
# human podocalyxin [2] = molecular target: T1, human podocalyxin; test: cross competition FACS on MDA-MB-231 cells; unlabeled antibody 25 ug/mL; detected antibody: B-Ova 12 5 ug/mL (control)
# human podocalyxin [3] = molecular target: T1, human podocalyxin; test: cross competition FACS on MDA-MB-231 cells; unlabeled antibody 25 ug/mL; competitor and detected antibody: biotinylated Rb/Hu Podo83 5 ug/mL
# human podocalyxin [4] = molecular target: T1, human podocalyxin; test: cross competition FACS on MDA-MB-231 cells; unlabeled antibody 25 ug/mL; detected antibody: B-mIgG1 5 ug/mL (control)
# human podocalyxin [5] = molecular target: T1, human podocalyxin; test: cross competition FACS on MDA-MB-231 cells; unlabeled antibody 25 ug/mL; competitor and detected antibody: B-3G2.2 5 ug/mL
# human podocalyxin [6] = molecular target: T1, human podocalyxin; test: cross competition FACS on MDA-MB-231 cells; unlabeled antibody 25 ug/mL; detected antibody: B-Herceptin 5 ug/mL (control, its target on the cells not given)
# human podocalyxin [7] = molecular target: T1, human podocalyxin; test: flow cytometry, isotype control, MDA-MB-231 cells
# human podocalyxin [8] = molecular target: T1, human podocalyxin; test: flow cytometry, isotype control, SKOV3 cells
# human podocalyxin [9] = molecular target: T1, human podocalyxin; test: flow cytometry, isotype control, A172 cells
# human podocalyxin [10] = molecular target: T1, human podocalyxin; test: flow cytometry, isotype control, CaOV3 cells
# human podocalyxin [11] = molecular target: T1, human podocalyxin; test: flow cytometry, isotype control, T47-D cells
# human podocalyxin [12] = molecular target: T1, human podocalyxin; test: flow cytometry, isotype control, OVCAR3 cells
# human podocalyxin [13] = molecular target: T1, human podocalyxin; test: flow cytometry, isotype control, 293 HEK cells
# human podocalyxin [14] = molecular target: T1, human podocalyxin; test: flow cytometry, isotype control, HUVEC cells
# human podocalyxin [15] = molecular target: T1, human podocalyxin; test: flow cytometry, isotype control, MCF7 cells
# human podocalyxin [16] = molecular target: T1, human podocalyxin; test: flow cytometry, isotype control, OVCAR10 cells
# human podocalyxin [17] = molecular target: T1, human podocalyxin; test: flow cytometry, control antibody, HUVEC cells
# human podocalyxin [18] = molecular target: T1, human podocalyxin; test: flow cytometry, control antibody, T47-D cells
# human podocalyxin [19] = molecular target: T1, human podocalyxin; test: flow cytometry, control antibody, A172 cells
# human podocalyxin [20] = molecular target: T1, human podocalyxin; test: flow cytometry, control antibody, OVCAR10 cells
# human podocalyxin [21] = molecular target: T1, human podocalyxin; test: flow cytometry, control antibody, MDA-MB-231 cells
# human podocalyxin [22] = molecular target: T1, human podocalyxin; test: flow cytometry, control antibody, OVCAR3 cells
# human podocalyxin [23] = molecular target: T1, human podocalyxin; test: flow cytometry, control antibody, MCF7 cells
# human podocalyxin [24] = molecular target: T1, human podocalyxin; test: flow cytometry, control antibody, CaOV3 cells
# human podocalyxin [25] = molecular target: T1, human podocalyxin; test: flow cytometry, control antibody, 293 HEK cells
# human podocalyxin [26] = molecular target: T1, human podocalyxin; test: kinetic exclusion assay (KinExA 3200), MDA-MB-231 cells
# [27] = molecular target: human podocalyxin (human); test: FACS, hPodo/MDA cells (MDA-MB-231 transfected with human podocalyxin cDNA)
# [28] = molecular target: human podocalyxin (human); test: flow cytometry, supernatant 1:125, MDA-MB-231 cells
# [29] = molecular target: human podocalyxin (human); test: flow cytometry, supernatant 1:5, MDA-MB-231 cells
# [30] = molecular target: human podocalyxin (human); test: flow cytometry, supernatant neat, hPodo/MDA-MB-231 transient transfectants
# [31] = molecular target: human podocalyxin (human); test: flow cytometry, supernatant 2:15 (so in the source), hPodo/MDA-MB-231 transient transfectants
# [32] = molecular target: human podocalyxin (human); test: flow cytometry, supernatant neat, MDA-MB-231 cells
# [33] = molecular target: human podocalyxin (human); test: flow cytometry, supernatant 1:5, hPodo/MDA-MB-231 transient transfectants
# [34] = molecular target: human podocalyxin (human); test: flow cytometry, supernatant 1:125, hPodo/MDA-MB-231 transient transfectants
# [35] = molecular target: human podocalyxin (human); test: flow cytometry, supernatant 2:15 (so in the source), MDA-MB-231 cells
# human podocalyxin [36] = molecular target: T1, human podocalyxin; test: flow cytometry, supernatant neat, MDA-MB-231 cells
# human podocalyxin [37] = molecular target: T1, human podocalyxin; test: flow cytometry, supernatant 1:125, hPodo/MDA-MB-231 transient transfectants
# human podocalyxin [38] = molecular target: T1, human podocalyxin; test: flow cytometry, supernatant 2:15 (so in the source), hPodo/MDA-MB-231 transient transfectants
# human podocalyxin [39] = molecular target: T1, human podocalyxin; test: flow cytometry, supernatant 2:15 (so in the source), MDA-MB-231 cells
# human podocalyxin [40] = molecular target: T1, human podocalyxin; test: flow cytometry, supernatant 1:5, MDA-MB-231 cells
# human podocalyxin [41] = molecular target: T1, human podocalyxin; test: flow cytometry, supernatant 1:125, MDA-MB-231 cells
# human podocalyxin [42] = molecular target: T1, human podocalyxin; test: flow cytometry titration on 293-6E cells (endogenous podocalyxin), 48 hours at 4 C
# human podocalyxin [43] = molecular target: T1, human podocalyxin; test: flow cytometry titration on 293-6E cells (endogenous podocalyxin), 24 hours at 4 C
# human podocalyxin [44] = molecular target: T1, human podocalyxin; test: flow cytometry, supernatant 1:5, hPodo/MDA-MB-231 transient transfectants
# human podocalyxin [45] = molecular target: T1, human podocalyxin; test: flow cytometry, supernatant neat, hPodo/MDA-MB-231 transient transfectants
molecule,measurement,setting,value
hIgG2 (antibody),FACS signal (name not given),human podocalyxin [1],533
mIgG1 (antibody),FACS signal (name not given),human podocalyxin [2],458
same,FACS signal (name not given),human podocalyxin [3],124000
same,FACS signal (name not given),human podocalyxin [4],414
same,FACS signal (name not given),human podocalyxin [5],26600
same,FACS signal (name not given),human podocalyxin [6],4810
MsIgG2a (antibody),Live cell GeoMean FL (geometric mean fluorescence units),human podocalyxin [7],478
same,Live cell GeoMean FL (geometric mean fluorescence units),human podocalyxin [8],485
same,Live cell GeoMean FL (geometric mean fluorescence units),human podocalyxin [9],797
same,Live cell GeoMean FL (geometric mean fluorescence units),human podocalyxin [10],892
same,Live cell GeoMean FL (geometric mean fluorescence units),human podocalyxin [11],787
same,Live cell GeoMean FL (geometric mean fluorescence units),human podocalyxin [12],708
same,Live cell GeoMean FL (geometric mean fluorescence units),human podocalyxin [13],556
same,Live cell GeoMean FL (geometric mean fluorescence units),human podocalyxin [14],484
same,Live cell GeoMean FL (geometric mean fluorescence units),human podocalyxin [15],1130
same,Live cell GeoMean FL (geometric mean fluorescence units),human podocalyxin [16],618
hIgG1 (antibody),FACS signal (name not given),human podocalyxin [1],544
MAB1658 (R&D Systems) (antibody),FACS signal (name not given),human podocalyxin [2],476
same,FACS signal (name not given),human podocalyxin [3],127000
same,FACS signal (name not given),human podocalyxin [4],431
same,FACS signal (name not given),human podocalyxin [5],26900
same,FACS signal (name not given),human podocalyxin [6],4720
Control Rb/Hu IgG1 (antibody),Live cell GeoMean FL (geometric mean fluorescence units),human podocalyxin [17],489
same,Live cell GeoMean FL (geometric mean fluorescence units),human podocalyxin [18],667
same,Live cell GeoMean FL (geometric mean fluorescence units),human podocalyxin [19],644
same,Live cell GeoMean FL (geometric mean fluorescence units),human podocalyxin [20],653
same,Live cell GeoMean FL (geometric mean fluorescence units),human podocalyxin [21],477
same,Live cell GeoMean FL (geometric mean fluorescence units),human podocalyxin [22],629
same,Live cell GeoMean FL (geometric mean fluorescence units),human podocalyxin [23],657
same,Live cell GeoMean FL (geometric mean fluorescence units),human podocalyxin [24],767
same,Live cell GeoMean FL (geometric mean fluorescence units),human podocalyxin [25],446
3D3 (Santa Cruz Biotechnology sc23904) (antibody),FACS signal (name not given),human podocalyxin [2],450
same,FACS signal (name not given),human podocalyxin [3],135000
same,FACS signal (name not given),human podocalyxin [4],419
same,FACS signal (name not given),human podocalyxin [5],26400
same,FACS signal (name not given),human podocalyxin [6],4820
B1,Kd,human podocalyxin [26],3.34 nM
B2,FACS signal (name not given),[27],98300
B3,FACS signal (name not given),[28],15500
same,FACS signal (name not given),[29],129000
same,FACS signal (name not given),[30],90800
same,FACS signal (name not given),[31],89700
same,FACS signal (name not given),[32],179000
same,FACS signal (name not given),[33],139000
same,FACS signal (name not given),[34],24100
same,FACS signal (name not given),[35],53700
B4,FACS signal (name not given),human podocalyxin [36],125000
same,FACS signal (name not given),human podocalyxin [37],61600
same,FACS signal (name not given),human podocalyxin [38],157000
same,FACS signal (name not given),human podocalyxin [39],91500
same,FACS signal (name not given),human podocalyxin [40],112000
same,FACS signal (name not given),human podocalyxin [41],39400
same,IC50,human podocalyxin [42],0.0355 µg/mL
same,EC50,human podocalyxin [43],0.0331 µg/mL
same,Kd,human podocalyxin [26],0.26 nM
same,FACS signal (name not given),human podocalyxin [44],128000
same,FACS signal (name not given),human podocalyxin [45],124000
B5,FACS signal (name not given),human podocalyxin [36],123000
same,FACS signal (name not given),human podocalyxin [37],37700
same,FACS signal (name not given),human podocalyxin [38],79400
same,FACS signal (name not given),human podocalyxin [39],67200
same,FACS signal (name not given),human podocalyxin [40],105000
same,FACS signal (name not given),human podocalyxin [41],22300
same,IC50,human podocalyxin [42],0.052 µg/mL
same,EC50,human podocalyxin [43],0.0519 µg/mL
same,FACS signal (name not given),human podocalyxin [44],108000
same,FACS signal (name not given),human podocalyxin [45],139000
B6,FACS signal (name not given),human podocalyxin [36],130000
same,FACS signal (name not given),human podocalyxin [37],74500
same,FACS signal (name not given),human podocalyxin [38],76400
same,FACS signal (name not given),human podocalyxin [39],94800
same,FACS signal (name not given),human podocalyxin [40],115000
same,FACS signal (name not given),human podocalyxin [41],47700
same,FACS signal (name not given),human podocalyxin [44],124000
same,FACS signal (name not given),human podocalyxin [45],137000
